Reference: the supplement of paper PMC11780869

Test system: Bacillus subtilis
Assay: cleaved RNA product abundance (RNA/gDNA barcode ratio) relative to median wild-type variant (ratio to wild type); higher = more accumulation of the downstream cleavage product
In short: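 Reporter mRNAs (truncated aprE or tetM) carrying barcoded, mutagenized RNase Y cleavage-site windows were made from oligos with a 9% error rate and integrated into the B. subtilis chromosome. Cultures grew in LB at 37°C from OD600 0.0003 to 0.3. Cleaved RNA was gel-selected, reverse transcribed and barcode-sequenced alongside genomic DNA barcodes, with UMI collapsing. Cleaved product abundance is the RNA:gDNA barcode ratio per variant, scaled to the median wild-type variant.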

[1] = experiment (reporter, strain, medium): exp 8a: truncated aprE reporter, strain BJT201 with 2% xylose (RNase J1 expressed), cleavage site: glnRA (positions -5 to +31 mutated)
[2] = experiment (reporter, strain, medium): exp 4a: truncated aprE reporter, strain BJT201 with 2% xylose (RNase J1 expressed), cleavage site: cggR-gapA (positions -7 to +36 mutated)
[3] = experiment (reporter, strain, medium): exp 2b: truncated aprE reporter, strain BJT200, cleavage site: cggR-gapA (positions -7 to +36 mutated)
[4] = experiment (reporter, strain, medium): exp 6: tetM reporter, strain 168, cleavage site: cggR-gapA (positions -7 to +36 mutated)

Sequence | cleaved RNA product abundance [2] | other results
CGACATGTCCCGCTTCTTTCATTAATCCGTTAGCAACTGTTTTGCTATTTACATTTACCTTTTAAGAGGAGGAAT | – | cleaved RNA product abundance [1]: 0.16
ACAGACGAAGGAGCCGCAAAGAAGTTATTAAGGGATGAATACTCCCTCAATAGAAATATCTCTCACTTATTTAAA | 0.115 | –
ACAGACGAAGGAGCCGCAAAGTAGTTAATAATGGATGAATAATCCCTCAATATAAATATCTCTCACTTATTTAAA | 0.0855 | –
CGACATGTCCCGCTTCTTTCATTAAAACGTTAGCAACTGTTTTGCTATATACATTTACCTTTTAAGAGGAGGAAT | – | cleaved RNA product abundance [1]: 0.868
CGACATGTCCCGCTTCTTTCATTACTCCGTTAGCAACTGTTTTGCTATATACATATACCTTTTAAGAGGAGGAAT | – | cleaved RNA product abundance [1]: 0.767
ACAGACGAAGGAGCCGCAAAGAATTTATTAAAGGATGAAAAATCCCTCAATATAAATATCTCTCACTTATTTAAA | 0.197 | –
ACAGACGAAGGAGCCGCAAAGAAGTTATTAATGGATGAATATTCCCTCAATATAAATATCTCTCACTTATTTAAA | 0.107 | –
ACAGACGAAGGAGCCGCAAAGATGTAATTAAGGGATGAATAATCCCTCAATATAAATATCTCTCACTTATTTAAA | 0.427 | –
ACAGACGAAGGAGCCGCAAATTAGTTATTAATGGATGAATAATCCCTCAATATAAATATCTCTCACTTATTTAAA | 0.153 | –
CGACATGTCCCGCTTCTTTCATTAATACGTTAGCTACTGTTTTGCTATATACATTTACCTTTTAAGAGGAGGAAT | – | cleaved RNA product abundance [1]: 0.562
ACAGACGAAGGAGCCGCGAATAAGTTATTAAGGGATGAATAATCCCTCAATATAAATATCTCTCACTTATTTAAA | 1.47 | cleaved RNA product abundance [3]: 1.19
ACAGACGAAGGAGCCGCGAAGAACTTATTAAGGGATGAATAATCCCTCAATATAAATATCTCTCACTTATTTAAA | 0.252 | –
CGACATGTCCCGCTTCTTTCATTAATCCGTTAGCAACTGTTTTGCTATATATATTTATCTTTTAAGAGGAGGAAT | – | cleaved RNA product abundance [1]: 1.3
ACAGACGAAGGAGCCGCAAAGAAGTTAGTAAGGGATCAATAATCCCTCAATATAAATATCTCTCACTTATTTAAA | 0.305 | –
ACAGACGAAGGAGCCGCAAAGGAGTTATTAAGGGATGAATAATCCCTCACTATAAATATCTCTCACTTATTTAAA | 0.302 | –
ACAGACGAAGGAGCCGCAAAGAACTTATTAAGGGATGAATTATCCCACAATATAAATATCTCTCACTTATTTAAA | 0.17 | –
CGACATGTCCCGCTTCTTTCATTAATTCGTTAGCAACTGTTTTGCTATATACATTTACCGTTTAAGAGGAGGAAT | – | cleaved RNA product abundance [1]: 0.591
ACAGACGAAGGAGCCGCAAAGAAGTTATTTAGGGATGAATAATCGCTCAATATAAATATCTCTCACTTATTTAAA | 0.0995 | –
CGACATGTCCCGCTTCTTTCATTAATCGGTTAGCAACTGTTTTGCTATATACATTAACCTTTTAAGAGGAGGAAT | – | cleaved RNA product abundance [1]: 1.51
ACAGACGAAGGAGCCGCAAAGAGGTTATTAAGTGATGAATAATCCCTCAATATAAATATCTCTCACTTATTTAAA | 0.0848 | –
ACAGACGAAGGAGCCGCAAATAAGTTATTAAGGGATGAATAAGCCCTCAATATAAATATCTCTCACTTATTTAAA | 0.476 | –
ACAGACGAAGGAGCCGCAAAGAAGTAATTAAGGGATGAATAATCCCTAAATATAAATATCTCTCACTTATTTAAA | 0.234 | –
CGACATGTCCCGCTTCTTTCATTAATCCGTTAGCAACTGTTTTGCAATATACATTTACCTTTTAAGAGGAGGAAT | – | cleaved RNA product abundance [1]: 0.436
ACAGACGAAGGAGCCGCAAAGAAGCTATTAAGTGATGAATAATCCCTCAATATAAATATCTCTCACTTATTTAAA | 0.113 | –
ACAGACGAAGGAGCCGCAAATAAGTTATTATGGGATGAATAATCCCTCTATATAAATATCTCTCACTTATTTAAA | 0.483 | –
ACAGACGAAGGAGCCGCACAGAAGTGATTAAGGGATGAATAATCCCTCAATATAAATATCTCTCACTTATTTAAA | 0.311 | cleaved RNA product abundance [3]: 0.259
ACAGACGAAGGAGCCGCAAAGAAGTTATTAAGGGATGAATTATCCCTCAATATAAATATCTCTCACTTATTTAAA | 0.845 | cleaved RNA product abundance [3]: 0.687; cleaved RNA product abundance [4]: 0.559
ACAGACGAAGGAGCCGCAAAGAAGTTATTAAGGGATGTATAATCCCTAAATATAAATATCTCTCACTTATTTAAA | 0.748 | cleaved RNA product abundance [3]: 0.551

Sequence | cleaved RNA product abundance [2] | other results
ACAGACGAAGGAGCCGCAAAGAAGTTATTAGGGGATGACTAATCCCTCAATATAAATATCTCTCACTTATTTAAA | 0.63 | –
ACAGACGAAGGAGCCGCAAAGAAGTTATTAAGGGATGGATAATCCCTAAATATAAATATCTCTCACTTATTTAAA | 0.553 | –
ACAGACGAAGGAGCCGCAAAGAACTTACTAAGGGATGAATAATCCCTCAATATAAATATCTCTCACTTATTTAAA | 0.237 | –
ACAGACGAAGGAGCCGCAAAGAAGTTATTAGGGGATGAATAATCCCTGAATATAAATATCTCTCACTTATTTAAA | 0.371 | –
CGACATGTCCCGCTTCTTTCATTAGTCCGTTAGCAACTGTTTTGCTATATACTTTTACCTTTTAAGAGGAGGAAT | – | cleaved RNA product abundance [1]: 0.341
ACAGACGAAGGAGCCGCAAAGAAGTTATTAAGGGATGAATAATCCCTAAAAATAAATATCTCTCACTTATTTAAA | 0.423 | cleaved RNA product abundance [3]: 0.213
CGACATGTCCCGCTTCTTTCATTAATCCGTTAGCAACTATTTTTCTATATACATTTACCTTTTAAGAGGAGGAAT | – | cleaved RNA product abundance [1]: 0.613
ACAGACGAAGGAGCCGCAAAGCAGTTATTAAGGGATGAATAATCCATCAATATAAATATCTCTCACTTATTTAAA | 0.172 | –
ACAGACGAAGGAGCCGCAAAGAAGTTATGAAGGGATGAATAATCCCACAATATAAATATCTCTCACTTATTTAAA | – | cleaved RNA product abundance [3]: 0.138
CGACATGTCCCGCTTCTTTCATTAATCCGTTAGCAACTGTTTTGCTATATACATTAATCTTTTAAGAGGAGGAAT | – | cleaved RNA product abundance [1]: 1.54
ACAGACGAAGGAGCCGCAAAGAAGTTATTATGGGATGAATAATCCCTCAATATAAATATCTCTCACTTATTTAAA | 0.407 | cleaved RNA product abundance [3]: 0.302
ACAGACGAAGGAGCCGCACAGAAGTTATTAAGAGATGAATAATCCCTCAATATAAATATCTCTCACTTATTTAAA | 0.215 | cleaved RNA product abundance [3]: 0.134
ACAGACGAAGGAGCCGCAAAGAAGTTATTAAGGGATGAATAATCCCTCAATATAAATATCACTCACTTATTTAAA | 0.917 | –
ACAGACGAAGGAGCCGCAAAGAAGTTATTTAGGGATGAATAATCCCTCAAGATAAATATCTCTCACTTATTTAAA | – | cleaved RNA product abundance [3]: 0.16
ACAGACGAAGGAGCCGCAAAGAAGTGATTAAGGGATGAATAATCCCTTAATATAAATATCTCTCACTTATTTAAA | 0.74 | –
ACAGACGAAGGAGCCGCAAAGAAGTTATTAAGGGATGAATATTCGCTCAATATAAATATCTCTCACTTATTTAAA | 0.086 | –
CGACATGTCCCGCTTCTTTCATTAATCCGTTAGCAACTGTTTTGCCACGTACATTTACCTTTTAAGAGGAGGAAT | – | cleaved RNA product abundance [1]: 0.0527
CGACATGTCCCGCTTCTTTCATTAATCCGTTAGCCACTGTTTTGCTATATACATTTACCTTTTAAGAGGAGGAAT | – | cleaved RNA product abundance [1]: 0.478
ACAGACGAAGGAGCCGCAAAGAAGCTATTAAGCGATGAATAATCCCTCAATATAAATATCTCTCACTTATTTAAA | 0.0691 | –
ACAGACGAAGGAGCCGCAAAGAAGTTATTAAGAGATGACTAATCCCTCAATATAAATATCTCTCACTTATTTAAA | 0.0924 | cleaved RNA product abundance [3]: 0.082
ACAGACGAAGGAGCCGTAAAGAAGTTATTAAGGGATGAATAATCCCTCAATATAAATATCTCTCACTTATTTAAA | – | cleaved RNA product abundance [4]: 1.09
ACAGACGAAGGAGCCGCAAAGAAGTTATTAAGGGAAGAATAAACCCTCAATATAAATATCTCTCACTTATTTAAA | 0.27 | cleaved RNA product abundance [3]: 0.301
ACAGACGAAGGAGCCGCAACGAAGTTATTAAGGGACGAATAATCCCTCAATATAAATATCTCTCACTTATTTAAA | 0.585 | –
ACAGACGAAGGAGCCGCAAAGAAGTTATTAAGAGATGAATAATCCCTCAATATATATATCTCTCACTTATTTAAA | 0.14 | cleaved RNA product abundance [3]: 0.129
ACAGACGAAGGAGCCGCAAAGAAGTTATTAAGTGATGAATAATCCCTCAATATAACTATCTCTCACTTATTTAAA | – | cleaved RNA product abundance [3]: 0.146
ACAGACGAAGGAGCCGCAAAGAAGTTATTAATGGATGAATAATCCCTCAATATATATATCTCTCACTTATTTAAA | 0.15 | cleaved RNA product abundance [3]: 0.0976
ACAGACGAAGGAGCCGCAAAGAAGTTATTAAGGGATAAATAATCCCTCAAGATAAATATCTCTCACTTATTTAAA | 0.29 | cleaved RNA product abundance [3]: 0.18
